Laboratory results reported in patent US20180127503A1 (EUREKA THERAPEUTICS, published 2018).

Key:
[1] = molecular target: T1, human ROR2 expressed on the cell surface (human, UniProt Q01974 34-943); experiment: flow cytometry, LAN-1 cells (neuroblastoma); parameters: unit not given here
T1 construct: Endogenous ROR2 of human tumour cell lines; also called cell surface ROR2; ROR2 on tumour cell lines
Procedure: (§1) Human tumour cell lines were authenticated using short tandem repeat (STR) analysis. They were cultured in RPMI1640 (Cellgro) supplemented with 10% fetal bovine serum (FBS, Life Technologies) at 37° C. in a 5% CO₂ humidified incubator. They were harvested, washed in PBS and reacted with ROR2-IgG at 1 ug/10⁶ tumour cells on ice for an hour. #901-IgG was used as a negative control at the same dose. After washing, a secondary PE-conjugated goat anti-human IgG, Fcγ fragment specific (1:100, Jackson ImmunoResearch) was added for another 30 min incubation. Staining was analyzed on a FACSCalibur (BD Biosciences). ROR2 (full length) antibody binding towards multiple cancer cell lines were compared with Rituxan and Herceptin antibodies. The cancer cell lines were derived from breast cancer, colorectal cancer, mesothelioma, hepatocellular carcinoma, ovarian cancer, osteosarcoma, neuroblastoma, etc. ROR2 #90 antibody could recognize most of the tumour cells tested, and in some cases, the binding intensity was higher than Herceptin (see Tables 8 to 10).

[2] = molecular target: T1, human ROR2 expressed on the cell surface; experiment: flow cytometry, U2OS cells (osteosarcoma); parameters: unit not given here
Procedure: as §1

[3] = molecular target: T1, human ROR2 expressed on the cell surface; experiment: flow cytometry, NCI-H2052 cells (mesothelioma); parameters: reference not given here
Procedure: as §1

[4] = molecular target: T1, human ROR2 expressed on the cell surface; experiment: flow cytometry, TC32 cells (EW/PNET); parameters: unit not given here
Procedure: as §1

[5] = molecular target: T1, human ROR2 expressed on the cell surface; experiment: flow cytometry, SKBR3 cells (breast CA); parameters: reference not given here
Procedure: as §1

[6] = molecular target: T1, human ROR2 expressed on the cell surface; experiment: flow cytometry, H524 cells (SCLC); parameters: reference not given here
Procedure: as §1

[7] = molecular target: T1, human ROR2 expressed on the cell surface; experiment: flow cytometry, NMB7 cells (neuroblastoma); parameters: unit not given here
Procedure: as §1

[8] = molecular target: T1, human ROR2 expressed on the cell surface; experiment: flow cytometry, OCM1 cells (melanoma); parameters: unit not given here
Procedure: as §1

[9] = molecular target: T1, human ROR2 expressed on the cell surface; experiment: flow cytometry, SKHEP-1 cells (HCC); parameters: unit not given here
Procedure: as §1

[10] = molecular target: T1, human ROR2 expressed on the cell surface; experiment: flow cytometry, H345 cells (SCLC); parameters: unit not given here
Procedure: as §1

[11] = molecular target: T1, human ROR2 expressed on the cell surface; experiment: flow cytometry, IMR32 cells (neuroblastoma); parameters: unit not given here
Procedure: as §1

[12] = molecular target: T1, human ROR2 expressed on the cell surface; experiment: flow cytometry, OVCAR3 cells (ovarian CA); parameters: unit not given here
Procedure: as §1

[13] = molecular target: T1, human ROR2 expressed on the cell surface; experiment: flow cytometry, SKNJB cells (neuroblastoma); parameters: unit not given here
Procedure: as §1

[14] = molecular target: T1, human ROR2 expressed on the cell surface; experiment: flow cytometry, M14 cells (melanoma); parameters: reference not given here
Procedure: as §1

[15] = molecular target: T1, human ROR2 expressed on the cell surface; experiment: flow cytometry, TC71 cells (EW/PNET); parameters: unit not given here
Procedure: as §1

[16] = molecular target: T1, human ROR2 expressed on the cell surface; experiment: flow cytometry, H69 cells (SCLC); parameters: unit not given here
Procedure: as §1

[17] = molecular target: T1, human ROR2 expressed on the cell surface; experiment: flow cytometry, SKNSH cells (neuroblastoma); parameters: unit not given here
Procedure: as §1

[18] = molecular target: T1, human ROR2 expressed on the cell surface; experiment: flow cytometry, SKNMM cells (neuroblastoma); parameters: unit not given here
Procedure: as §1

[19] = molecular target: T1, human ROR2 expressed on the cell surface; experiment: flow cytometry, HTB63 cells (melanoma); parameters: unit not given here
Procedure: as §1

[20] = molecular target: T1, human ROR2 expressed on the cell surface; experiment: flow cytometry, SKOV3 cells (ovarian CA); parameters: unit not given here
Procedure: as §1

[21] = molecular target: T2, human ROR2 extracellular domain (ROR2 ECD recombinant protein) (human, UniProt Q01974 34-403); experiment: kinetic binding analysis, full length IgG1 on human ROR2-ECD
T2 construct: also called human ROR2-ECD; hROR2-ECD

[22] = molecular target: T1, human ROR2 expressed on the cell surface; experiment: flow cytometry, BE(1)N cells (neuroblastoma); parameters: unit not given here
Procedure: as §1

[23] = molecular target: T1, human ROR2 expressed on the cell surface; experiment: flow cytometry, COLO 205 cells (CRC); parameters: unit not given here
Procedure: as §1

[24] = molecular target: T1, human ROR2 expressed on the cell surface; experiment: flow cytometry, HTB26 (MDA-MB-231) cells (breast CA); parameters: unit not given here
Procedure: as §1

[25] = molecular target: T1, human ROR2 expressed on the cell surface; experiment: flow cytometry, CRL1427 cells (osteosarcoma); parameters: unit not given here
Procedure: as §1

[26] = molecular target: T1, human ROR2 expressed on the cell surface; experiment: flow cytometry, OUMS 27 cells (chondrosarcoma); parameters: unit not given here
Procedure: as §1

[27] = molecular target: T1, human ROR2 expressed on the cell surface; experiment: flow cytometry, JN DSRCT cells (DSRCT); parameters: unit not given here
Procedure: as §1

T2 sequence (Q01974 34-403): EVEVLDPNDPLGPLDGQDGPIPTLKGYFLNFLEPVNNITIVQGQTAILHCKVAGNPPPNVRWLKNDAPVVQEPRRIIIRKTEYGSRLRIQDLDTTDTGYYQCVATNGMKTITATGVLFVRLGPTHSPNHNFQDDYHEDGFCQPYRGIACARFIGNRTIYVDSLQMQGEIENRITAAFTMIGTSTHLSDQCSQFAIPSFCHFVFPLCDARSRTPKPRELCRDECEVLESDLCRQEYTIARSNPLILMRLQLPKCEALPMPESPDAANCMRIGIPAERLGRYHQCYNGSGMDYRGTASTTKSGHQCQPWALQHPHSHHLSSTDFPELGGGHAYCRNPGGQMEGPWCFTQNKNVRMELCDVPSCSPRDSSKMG
T1 sequence (Q01974 34-943 limits assumed): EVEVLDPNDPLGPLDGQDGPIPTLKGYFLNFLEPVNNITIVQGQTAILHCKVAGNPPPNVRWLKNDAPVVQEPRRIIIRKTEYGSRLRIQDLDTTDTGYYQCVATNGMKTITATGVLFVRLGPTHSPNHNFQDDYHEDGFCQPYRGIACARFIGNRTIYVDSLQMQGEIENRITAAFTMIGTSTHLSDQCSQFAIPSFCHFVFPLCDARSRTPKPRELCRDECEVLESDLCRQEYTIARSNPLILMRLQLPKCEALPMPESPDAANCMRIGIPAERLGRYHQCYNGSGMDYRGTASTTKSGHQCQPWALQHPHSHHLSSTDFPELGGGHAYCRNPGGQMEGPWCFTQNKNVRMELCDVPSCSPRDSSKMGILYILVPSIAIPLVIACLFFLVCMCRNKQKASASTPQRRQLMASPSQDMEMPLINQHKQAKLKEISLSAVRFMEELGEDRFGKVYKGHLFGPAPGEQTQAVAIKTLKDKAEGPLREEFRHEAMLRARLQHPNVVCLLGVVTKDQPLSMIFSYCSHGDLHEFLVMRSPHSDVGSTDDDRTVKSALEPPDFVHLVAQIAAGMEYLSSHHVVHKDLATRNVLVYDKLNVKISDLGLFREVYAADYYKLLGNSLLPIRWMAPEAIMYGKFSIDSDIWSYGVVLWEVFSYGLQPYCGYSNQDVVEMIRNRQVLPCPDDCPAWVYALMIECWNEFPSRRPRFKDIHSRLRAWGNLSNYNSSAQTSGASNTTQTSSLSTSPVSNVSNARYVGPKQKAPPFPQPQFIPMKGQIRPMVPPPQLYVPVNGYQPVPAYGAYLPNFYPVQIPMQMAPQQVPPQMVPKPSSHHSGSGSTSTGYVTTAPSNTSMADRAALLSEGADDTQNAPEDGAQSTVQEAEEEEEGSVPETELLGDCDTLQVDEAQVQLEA

B1: ROR2-90 full length human IgG1 antibody (antibody, V domains shown)
VH: EVQLVESGPGLVKPSQTLSLTCTVSGGSISSGGYYWSWIRQHPGKGLEWIGYIYYSGSTYYNPSLKSRVTISVDTSKNQFSLKLSSVTAADTAMYYCARGGLYWTYSQDVWGQGTLVTVSS
VL: QPVLTQPPSASGTPGQRVTISCSGSSSNIGSDYVSWYQQLPGTAPKLLIYRNDQRPSGVPDRFSGSKSGTSASLAISGLRSEDEADYYCVAWDDSLSGYVFGSGTKVTVLG
notes: also called clone #90; antibody #90
binding intensity [1]: 48
binding intensity [2]: 94
binding intensity [3]: 101
binding intensity [4]: 70
binding intensity [5]: 98
binding intensity [6]: 20
binding intensity [7]: 47
binding intensity [8]: 18
binding intensity [9]: 74
binding intensity [10]: 48
binding intensity [11]: 51
binding intensity [12]: 48
binding intensity [13]: 254
binding intensity [14]: 17
binding intensity [15]: 68
binding intensity [16]: 15
binding intensity [17]: 105
binding intensity [18]: 117
binding intensity [19]: 27
binding intensity [20]: 246
Kd [21]: 0.163 nM
koff [21]: 0.000167 s⁻¹
kon [21]: 1.02e+06 M⁻¹ s⁻¹
binding intensity [22]: 302
binding intensity [23]: 44
binding intensity [24]: 19
binding intensity [25]: 45
binding intensity [26]: 78
binding intensity [27]: 84
